Laboratory results from article PMC8887487 (Nucleic Acids Research, 2022).

T1: 256–595 domain of Dicer (human, UniProt Q9UPY3 256-595)
T1 sequence: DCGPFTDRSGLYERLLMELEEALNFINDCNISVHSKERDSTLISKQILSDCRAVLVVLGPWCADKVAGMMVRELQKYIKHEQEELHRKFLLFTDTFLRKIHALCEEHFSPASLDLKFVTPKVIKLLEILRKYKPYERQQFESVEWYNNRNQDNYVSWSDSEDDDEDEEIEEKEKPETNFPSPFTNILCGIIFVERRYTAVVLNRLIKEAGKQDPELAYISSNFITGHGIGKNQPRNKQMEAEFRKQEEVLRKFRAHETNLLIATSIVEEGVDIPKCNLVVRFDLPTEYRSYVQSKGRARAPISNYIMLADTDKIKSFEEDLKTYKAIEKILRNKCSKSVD


Key:
[1] = biological target: GST (glutathione-S-transferase)-tagged RPAP3 (human, UniProt Q9H6T3 1-665); experiment: pull-down
Sequence of GST (glutathione-S-transferase)-tagged RPAP3 (Q9H6T3 whole entry, the tested form may be a part): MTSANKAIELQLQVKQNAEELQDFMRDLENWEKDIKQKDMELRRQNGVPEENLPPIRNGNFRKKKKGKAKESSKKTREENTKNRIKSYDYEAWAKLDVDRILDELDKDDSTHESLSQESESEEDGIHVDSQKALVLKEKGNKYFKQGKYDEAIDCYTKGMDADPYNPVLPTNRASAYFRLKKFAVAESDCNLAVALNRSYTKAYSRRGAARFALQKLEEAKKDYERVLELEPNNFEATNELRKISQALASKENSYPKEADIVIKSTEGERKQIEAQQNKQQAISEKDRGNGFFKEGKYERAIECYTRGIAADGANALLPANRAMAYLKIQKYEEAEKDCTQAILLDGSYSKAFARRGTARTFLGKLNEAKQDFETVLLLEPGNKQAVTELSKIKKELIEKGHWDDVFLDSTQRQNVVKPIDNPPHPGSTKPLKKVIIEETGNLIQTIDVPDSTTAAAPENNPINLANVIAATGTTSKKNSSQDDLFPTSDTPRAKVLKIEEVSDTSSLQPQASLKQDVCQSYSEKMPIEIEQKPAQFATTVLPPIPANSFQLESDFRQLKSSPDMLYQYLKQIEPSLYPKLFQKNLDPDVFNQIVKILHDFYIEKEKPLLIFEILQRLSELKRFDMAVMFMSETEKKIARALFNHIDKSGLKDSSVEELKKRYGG

256–595 domain of Dicer = biological target: T1, 256–595 domain of Dicer; experiment: SEC

Row | binding result [1] | binding result (256–595 domain of Dicer) | Binder
1 | binds |  | His6-tagged TRBP protein (natural protein) MSEEEQGSGTTTGCGLPSIEQMLAANPGKTPISLLQEYGTRIGKTPVYDLLKAEGQAHQPNFTFRVTVGDTSCTGQGPSKKAAKHKAAEVALKHLKGGSMLEPALEDSSSFSPLDSSLPEDIPVFTAAAAATPVPSVVLTRSPPMELQPPVSPQQSECNPVGALQELVVQKGWRLPEYTVTQESGPAHRKEFTMTCRVERFIEIGSGTSKKLAKRNAAAKMLLRVHTVPLDARDGNEVEPDDDHFSIGVGSRLDGLRNRGPGCTWDSLRNSVGEKILSLRSCSLGSLGALGPACCRVLSELSEEQAFHVSYLDIEELSLSGLCQCLVELSTQPATVCHGSATTREAARGEAARRALQYLKIMAGSK
2 |  | binds | TRBP-dsRBD3 (262–366) (domain or fragment) GCTWDSLRNSVGEKILSLRSCSLGSLGALGPACCRVLSELSEEQAFHVSYLDIEELSLSGLCQCLVELSTQPATVCHGSATTREAARGEAARRALQYLKIMAGSK
